In patent publication US6344321, “Nucleic acid ligands which bind to hepatocyte growth factor/scatter factor (HGF/SF) or its receptor c-met” (Gilead Sciences, Inc.):

Experiments:
[1] = target: T1, HGF (hepatocyte growth factor/scatter factor) (UniProt P14210;P14210 P14210:32-494,P14210:495-728); assay: filter; one or two 5' G; details: tags: R&D Systems
Method: (§1) In binding reactions, RNA concentrations were kept as low as possible—between 1 and 20 pM—to ensure equilibrium in conditions of protein excess. Oligonucleotides were incubated for 15 minutes at 37° C. with varying amounts of the protein in 43 µl of the binding buffer. Thirty-two microliters of each binding mixture placed on pre-wet 0.45 µm nitrocellulose filters under suction. Each well was immediately washed with 0.5 ml binding buffer. The amount of radioactivity retained on the filters was quantitated by imaging. The radioactivity that bound to filters in the absence of protein was used for background correction. The percentage of input oligonucleotide retained on each filter spot was plotted against the corresponding log protein concentration. The nonlinear least square method was used to obtain the dissociation constant (K_d; reference Jellinek, Lynott et al. 1993, Proc. Natl. Acad. Sci. USA. 90:11227–31).

[2] = target: T1, HGF (hepatocyte growth factor/scatter …); assay: filter; HBSMC, 37C; details: tags: R&D Systems
Method: as §1

T1 sequence (P14210 32-494, chain 1 of 2): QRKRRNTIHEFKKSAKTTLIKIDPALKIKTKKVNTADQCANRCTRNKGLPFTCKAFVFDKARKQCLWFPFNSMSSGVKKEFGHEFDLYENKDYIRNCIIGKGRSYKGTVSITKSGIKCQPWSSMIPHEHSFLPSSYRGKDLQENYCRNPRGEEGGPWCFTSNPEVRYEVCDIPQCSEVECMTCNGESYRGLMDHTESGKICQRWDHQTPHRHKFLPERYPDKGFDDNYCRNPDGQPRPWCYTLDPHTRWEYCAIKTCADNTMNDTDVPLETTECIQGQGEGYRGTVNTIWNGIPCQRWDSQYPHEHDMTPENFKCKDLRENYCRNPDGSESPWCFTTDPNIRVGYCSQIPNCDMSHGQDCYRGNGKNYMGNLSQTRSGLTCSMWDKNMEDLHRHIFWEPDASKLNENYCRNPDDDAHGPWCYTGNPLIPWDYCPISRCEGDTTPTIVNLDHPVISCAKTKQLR
T1 sequence (P14210 495-728, chain 2 of 2): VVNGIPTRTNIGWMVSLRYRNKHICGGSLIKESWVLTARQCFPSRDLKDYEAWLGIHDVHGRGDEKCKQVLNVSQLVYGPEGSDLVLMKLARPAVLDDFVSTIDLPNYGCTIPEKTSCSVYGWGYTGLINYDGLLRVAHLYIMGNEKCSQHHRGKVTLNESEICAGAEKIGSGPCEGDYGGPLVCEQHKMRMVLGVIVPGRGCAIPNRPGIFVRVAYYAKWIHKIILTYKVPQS

| Binder | Kd [1] [nM] | Kd [2] [nM] |
| --- | --- | --- |
| GGAGUGAUCCUAUUUAUGCCGUCGCUUCUCGCCA (ssRNA, 2'-F pyrimidines) [Tr44] | 6.5 | – |
| GGUGAUCACCUGUUUAUGCCAUCGUUCUGGGCCA (ssRNA, 2'-F pyrimidines) [Tr48] | 1.8 | – |
| GGGGUGACCCUUUUUAUGACAUCGCGUCUGGCCA (ssRNA, 2'-F pyrimidines) [Tr28] | 4 | – |
| GGGCGGCUCGAUGUCGUCUUAUCCCUUUGCCCCA (ssRNA, 2'-F pyrimidines) [Tr17] | 3 | – |
| GGGUGACUCAAAAUGGUGAUCCUCGUUUCCGCCA (ssRNA, 2'-F pyrimidines) [Tr4] | 1.4 | – |
| GGUGAAUUCCUCUGGCUGAAAAUGACUUGUGCCA (ssRNA, 2'-F pyrimidines) [Tr31] | 9.2 | – |
| GGGUUUGAGUGACGAUCGUCUUGUCCCAUGUGCA (ssRNA, 2'-F pyrimidines) [Tr15] | 8.8 | – |
| GGAUUGAUUCACUGCAUCCUUGACUCUUCCCCCA (ssRNA, 2'-F pyrimidines) [Tr1] | 7.3 | – |
| GGCAGACGACUCGCCCGAAGGACGAUGCGGCA (ssRNA, 2'-F pyrimidines) [Tr5] | 28 | – |
| GGGAGUUAUAUUUCGUCACCCGUUCCUUUGCCCCA (ssRNA, 2'-F pyrimidines) [Tr14] | 2.2 | – |
| GGACAGUUUGUCUUCUAUAGCUCGUCGCCCCCA (ssRNA, 2'-F pyrimidines) [Tr59] | 7.2 | – |
| GGUCAGAAUGACUUUCAUAGCUCGCUUUCCCCCA (ssRNA, 2'-F pyrimidines) [Tr71] | 7.7 | – |
| 10-13 (ssRNA, 2'-F pyrimidines) RNA: GGGAGAUAAGAAUAAACGCUCAAGAUCUGUUGGCGUGUCUACCCGACCCUCCUUUCGACAGGAGGCUCACAACAGGC | – | 0.72 |
| 10-36 (ssRNA, 2'-F pyrimidines) RNA: GGGAGAUAAGAAUAAACGCUCAACGUUAGCAUCUGAACGAUGCCCAGCCUCAAUUCGACAGGAGGCUCACAACAGGC | – | 1.94 |
| 10-62 (ssRNA, 2'-F pyrimidines) RNA: GGGAGAUAAGAAUAAACGCUCAAGUUAGACUCAACAUGAGUCCCAGCCUCAAUUCGACAGGAGGCUCACAACAGGC | – | 0.44 |
| 10-29 (ssRNA, 2'-F pyrimidines) RNA: GGGAGAUAAGAAUAAACGCUCAAUCUGUUGGCGUCGUUCUCCUGACCCUCCUCUUCGACAGGAGGCUCACAACAGGC | – | 1.75 |
| 10-48 (ssRNA, 2'-F pyrimidines) RNA: GGGAGAUAAGAAUAAACGCUCAAGAGUUCCCUGUUGACUCGCUCUCCUGACCCUUCGACAGGAGGCUCACAACAGGC | – | 0.31 |
| 10-16 (ssRNA, 2'-F pyrimidines) RNA: GGGAGAUAAGAAUAAACGCUCAAUACAGCGUGUUGGUCCCGGACGGGGACUUAUUUCGACAGGAGGCUCACAACAGGC | – | 0.21 |

| Binder | Kd [1] [nM] | Kd [2] [nM] |
| --- | --- | --- |
| 10-11 (ssRNA, 2'-F pyrimidines) RNA: GGGAGAUAAGAAUAAACGCUCAACGCCUGGACCGUUUGUUUAUCCCCGUAGUCUUCGACAGGAGGCUCACAACAGGC | – | 0.61 |
| 10-18 (ssRNA, 2'-F pyrimidines) RNA: GGGAGAUAAGAAUAAACGCUCAACGUGAUUCCUACCAUCAGGUACCUAUCUUGUUCGACAGGAGGCUCACAACAGGC | – | 0.3 |
| 10-1 (ssRNA, 2'-F pyrimidines) RNA: GGGAGAUAAGAAUAAACGCUCAAAGUGAUGUGAGAGCGUGCCUCUAGUCGGUGUUCGACAGGAGGCUCACAACAGGC | – | 0.094 |
| 8-222 (ssRNA, 2'-F pyrimidines) RNA: GGGAGGACGAUGCGGUGUGAACCUAUUUAUGCCAUUAUGUCUGUGCAGACGACUCGCCCGA | – | 0.13 |
| 10-57 (ssRNA, 2'-F pyrimidines) RNA: GGGAGAUAAGAAUAAACGCUCAACGAGCCUCCUACCGUUUAGGUACCAUCUUGUUCGACAGGAGGCUCACAACAGGC | – | 0.14 |
| 10-27 (ssRNA, 2'-F pyrimidines) RNA: GGGAGAUAAGAAUAAACGCUCAAUUAGCCUCCGACCGUAAGGUCCUUUUCUUGUUCGACAGGAGGCUCACAACAGGC | – | 0.83 |
| 10-53 (ssRNA, 2'-F pyrimidines) RNA: GGGAGAUAAGAAUAAACGCUCAAGGCCUCCAACCGCUAAAGGUUCCAUUCUUGUUCGACAGGAGGCUCACAACAGGC | – | 0.31 |
| 10-49 (ssRNA, 2'-F pyrimidines) RNA: GGGAGAUAAGAAUAAACGCUCAACCCGACCUCCUGUAACUGGUUGAGGCACUAUUCGACAGGAGGCUCACAACAGGC | – | 0.24 |
| 10-31 (ssRNA, 2'-F pyrimidines) RNA: GGGAGAUAAGAAUAAACGCUCAAGGGUUCCUGAUUGACCCUGUCUCUAGACCCUUCGACAGGAGGCUCACAACAGGC | – | 1.9 |
| 10-58 (ssRNA, 2'-F pyrimidines) RNA: GGGAGAUAAGAAUAAACGCUCAAGGGGAGGCCCUUCAGCCGUCUCCUUGACCCUUCGACAGGAGGCUCACAACAGGC | – | 0.44 |
| 10-63 (ssRNA, 2'-F pyrimidines) RNA: GGGAGAUAAGAAUAAACGCUCAAUGUGAUGUGAGGGCGUGCUUCCUAACGGUGUUCGACAGGAGGCUCACAACAGGC | – | 0.19 |
| 8-102 (ssRNA, 2'-F pyrimidines) RNA: GGGAGGACGAUGCGGCGAGUGCCUGUUUAUGUCAUCGUCCGUCGUCAGACGACUCGCCCGA | – | 0.06 |
| GGCGGUGUGAACCUGUUUAUGUCCGCGUACCCCA (ssRNA, 2'-F pyrimidines) [Tr7] | 0.67 | – |
| GGUGGGAACCUAUUUAUGUCAUCUCCGUCCCCA (ssRNA, 2'-F pyrimidines) [Tr45] | 1.7 | – |
| GGUGGGAACCUAUUUAUGUCAUCGUCUGUGCCCA (ssRNA, 2'-F pyrimidines) [Tr70] | 2.4 | – |
| GGCGUGAGCCUAUUUAUGUCAUCAUGUCUGUGCA (ssRNA, 2'-F pyrimidines) [Tr6] | 9 | – |
| GGUGUGAACCUGUUUAUGCCAUCUCGAGUCCCCA (ssRNA, 2'-F pyrimidines) [Tr20] | 3.4 | – |
| GGUGAUAACCUAUUUAUGACGUCGUGGCUCCCCA (ssRNA, 2'-F pyrimidines) [Tr42] | 6.1 | – |
